Measurements taken from publication PMC6488673, “Crystal structure of the Lin28-interacting module of human terminal uridylyltransferase that regulates let-7 expression”.

Molecular target: T1, hTUT4_N;hLin28A (human;human, UniProt Q5TAX3;Q9H9Z2 253-578+611-723;1-209, internal_change|)
T1 sequence 1: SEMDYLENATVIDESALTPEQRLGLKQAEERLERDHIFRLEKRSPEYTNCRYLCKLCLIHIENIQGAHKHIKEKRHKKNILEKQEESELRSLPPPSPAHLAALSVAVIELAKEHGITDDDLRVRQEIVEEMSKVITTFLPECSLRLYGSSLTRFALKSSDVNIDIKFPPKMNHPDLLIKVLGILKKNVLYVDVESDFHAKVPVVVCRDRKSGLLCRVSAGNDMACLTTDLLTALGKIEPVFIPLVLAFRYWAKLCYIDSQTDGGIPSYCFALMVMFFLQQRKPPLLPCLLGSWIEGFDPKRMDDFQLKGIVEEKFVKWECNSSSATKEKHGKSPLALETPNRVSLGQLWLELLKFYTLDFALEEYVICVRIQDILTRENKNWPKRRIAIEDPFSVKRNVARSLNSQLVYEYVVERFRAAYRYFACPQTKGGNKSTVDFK
T1 sequence 2: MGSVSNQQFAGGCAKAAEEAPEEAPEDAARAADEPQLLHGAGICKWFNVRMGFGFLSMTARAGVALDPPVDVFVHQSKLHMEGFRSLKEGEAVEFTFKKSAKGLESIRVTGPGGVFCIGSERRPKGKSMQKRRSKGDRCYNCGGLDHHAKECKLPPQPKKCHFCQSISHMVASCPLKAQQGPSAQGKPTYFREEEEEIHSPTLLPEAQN
Test: EMSA; ternary complex; 300 nM each protein, 100 nM RNA; EMSA: 50 mM Tris-HCl pH 8.5, 100 mM NaCl, 10 mM MgCl2, 10 mM beta-mercaptoethanol, 10% glycerol, 10 min, room temperature; Tb(III) footprinting: same salts, 5%
Conditions: protein: recombinant;recombinant; tags: C-terminal expression tag, residues 724-731 (pET22b, XhoI, Ni-NTA);N-terminal His tag (pET28b; Ni-NTA purified); copies: 1;1; label: none in EMSA (ethidium bromide stain); hairpin

B1: pre-let-7a-1 (structured_RNA)
RNA: UGAGGUAGUAGGUUGUAUAGUUUUAGGGUCACACCCACCACUGGGAGAUAACUAUACAAUCUACUGUCUUUC
binding result: binds
